# Results taken from patent publication US20090169520A1 (YISSUM RESEARCH DEVELOPMENT COMPANY OF THE HEBREW …, published 2009).
# B1: ASP63 (synthetic AChE-S C-terminal peptide, residues 548-610 of hAChE) (peptide)
# peptide: PLEVRRGLRAQACAFWNRFLPKLLSATDTLDEAERQWKAEFHRWSSYMVHWKNQFDHYSKQDR
# Biological target: synthetic Aβ (1-40) peptide (Biosource) (UniProt P05067 672-711)
# Assay: cell-based or functional assay
# Sequence of synthetic Aβ (1-40) peptide (Biosource) (P05067 672-711 limits assumed): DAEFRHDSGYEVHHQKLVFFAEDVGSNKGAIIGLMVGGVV
Binder,Lag (fold change) of Aβ fibrillation against no addition [fold],Lag (h) before onset of Aβ fibrillation [h],Rate (fold change) of Aβ fibrillation against no addition [fold]
"DTLDEAERQWKAEFHRWSSYMVHWKNQFDHYSKQDRCSDL [ASP40 (synthetic AChE-S C-terminal peptide, residues 575-614 of hAChE)]",1.1,4.4,0.8
B1,1.5,5.9,0.7
"GNIDEAEWEWKAGFHRWNNYMMDWKNQFNDYTSKKESCVGL [BSP41 (synthetic BChE C-terminal peptide, residues 562-602 of hBChE)]",> 1.9,> 7.5,0.4
